From the supplement of paper PMC9170038

Test system: MS2 coat protein
Assay: apparent KD of MS2 coat protein; designed switch direction (-1 OFF switch, 1 ON switch): -1; higher = weaker reporter binding
How it was run: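 Transcription of designed RNA switches on Illumina chips was done by stalled E. coli RNA polymerase. SNAP-549-labelled MS2 coat protein was then titrated in doubling steps from 0.7 or 1.5 nM to 3 µM, with steps of 0.8–1.5 h at the lowest and 10–20 min at the highest concentration. The per-design median over clusters of curve-fitted normalised fluorescence is reported as apparent KD.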

[1] = Eterna round: R95, input ligand: microRNA oligo, concentration not stated
[2] = input ligand: microRNA oligo, concentration not stated
[3] = Eterna round: R95, input ligand: FMN 200 uM
[4] = Eterna round: R95, input ligand: none

Sequence | apparent KD of MS2 coat protein (input ligand: FMN 200 uM) [nM] | apparent KD of MS2 coat protein (input ligand: none) [nM] | apparent KD of MS2 coat protein [1] [nM] | apparent KD of MS2 coat protein [2] [nM] | apparent KD of MS2 coat protein [3] [nM] | apparent KD of MS2 coat protein [4] [nM]
AAAUAGCUUGAGGAUAUUGGAUAGGAUUUAGUGCGAGAAGGCAAGACAUGAGGAUCACCCAUGUUGUGUUGGGA [EX6 #13] (Eterna round: R97, puzzle: Exclusion 6) | 48.4 | 36.4 |  |  |  | 
GUGAACUCGCUACUUACCAACAUGAGGAUCACCCAUGUGGGAGAAAGUGAAUAGCUAGUUGUUACGUCUUAAUCCAG [Eternabot (L1) Solution 47] (Eterna round: R97, puzzle: Sensor, turn-off variant 1) | 12.7 | 13 |  |  |  | 
UAUUAGUGAGGAUAUGGUAAAGAUAAGAUGAUGAAAGAACUCCAGAAGGCACAUGAGGAUCACCCAUGUAGUAG [JL-ex4-2.09 Jieux mod] (puzzle: Exclusion 4) |  |  | 19.5 |  |  | 
AGCUAGUCAGGAUAUUCUAAUGAUUACAUGAGGAUCACCCAUGUGAAUGGACAAGGGUGUGAAGAAGGGACUAGCG [Omei Ex5 A10] (Eterna round: R97, puzzle: Exclusion 5) | 426 | 4030 |  |  |  | 
GACUGGACAGGAUAUGUUCUUGAGCACUUGAGGAUCACCCAAGUCAUCAAGAACUCAGGCACAGAAGGGUUUAUGC [salish99_ex5_r4_011] (Eterna round: R97, puzzle: Exclusion 5) | 19.5 | 13.7 |  |  |  | 
UUAAAUCAUGUAGGAUAUGCGUGGCGAAGCUAUGCAGAAGGACAUGAGGAUCACCCAUGUUCUGCGGUCUGCGUACAGAUCGCU [JL ENG1 1.04] (Eterna round: R96, puzzle: Exclusion NG 1) |  |  |  | 14.9 |  | 
AGCAGACGAGGAUAUAAACGAUAUAACAUGAGGAUCACCCAUGUACGAUCGAUAGAUCGUUUAGAAGGCGUCUGCU [E5/9-A1] (Eterna round: R97, puzzle: Exclusion 5) | 14.5 | 13.1 |  |  |  | 
ACAUGUAAUGCAGGAUAUCGGACACAUGAGGAUCACCCAUGUGACCAGAGGUAUUGCUAAGAGUCUGAGAAGGGUAUGUACAUG [Ex NG2 #50] (Eterna round: R96, puzzle: Exclusion NG 2) | 20 | 19.1 |  | 17.5 |  | 
AAUGAUUGACGAGGAUAUUGUGGUGAAACACGACGAGAAGGCGUAUGUCACAUGAGGAUCACCCAUGUGUGCUUUGUGGAUAUA [Ex NG1 #69] (Eterna round: R96, puzzle: Exclusion NG 1) | 39.7 | 31.1 |  | 24.2 |  | 
GCCUCACUUGAGGAUCACCCAAGUCAGGAUAUUCACUGAACUGCGUAGCAAUUCGGCCGAAGAAGGGAUUCGGG [Veala] (Eterna round: R97, puzzle: Exclusion 1) | 75.2 | 107 |  |  |  | 
UUUUACAAGCUAAGAUCCUACAUGAGGAUCACCCAUGUGGUCCGGUGACGUGAGUCACCGGACUUAGCUCGUCUUGC [salish99_S_TOV1_R5_088] (Eterna round: R97, puzzle: Sensor, turn-off variant 1) | 36.2 | 43.7 |  |  |  | 
GAUCAGGUAGGAUAUGCAGGAUCGGACUUGAGGAUCACCCAAGUGGCCAAAGUGCGUCCCGCAGAAGGGCCAAAAC [Biinxelace] (Eterna round: R97, puzzle: Exclusion 5) | 439 | 618 |  |  |  | 
GUGUACGGAGGAUAUAUGUGGCGAGCAUACGCUCGAGCUUCACAUGAGGAUCACCCAUGUAGAAGGCUGUGCAC [JL-ex2-2.12 Brourd mod] (puzzle: Exclusion 2) |  |  | 17.9 |  |  | 
GCUGGAAAAGGAUAUACAUAACGUGCGUCGGCACGAGACCUACAUGAGGAUCACCCAUGUAGAAGGUUUCCAGC [EX2 #74] (Eterna round: R97, puzzle: Exclusion 2) | 20.9 | 13.6 |  |  |  | 
UCGUGGUAAAUCAGGUGAUGUCUGAUAGGAUGGACUUUGACAUGAGGAUCACCCAUGUUGCUUUUUGCCCGUCUUAA [JR_SV3TOV2_Sub044] (puzzle: Sensor v3, turn-off variant 2) |  |  | 27.3 |  | 16.1 | 15.2
GUGCGGUGAGGAUAUACGUAGGUACAGAUCUGUGUGUUCCUACAUGAGGAUCACCCAUGUAGAAGGCAUGGCAC [LRO-Excl2-12] (puzzle: Exclusion 2) |  |  | 38.4 |  |  | 
CAGUACUGCAGGCUUCGGGACAUGAGGAUCACCCAUGUUCGUCUUAUUGAUCUAGGUACGCUGACGUACCUAGAUCU [JL-sv1-2.16 Brourd mod] (puzzle: Sensor v3, turn-off variant 1) |  |  | 18.6 |  | 16.7 | 15.4

Sequence | apparent KD of MS2 coat protein (input ligand: FMN 200 uM) [nM] | apparent KD of MS2 coat protein (input ligand: none) [nM] | apparent KD of MS2 coat protein [1] [nM] | apparent KD of MS2 coat protein [2] [nM] | apparent KD of MS2 coat protein [3] [nM] | apparent KD of MS2 coat protein [4] [nM]
GUCCGGCAUGUAGGAUAUGGAUCCGAUUAGGAUUUAGAAGGACAUGAGGAUCACCCAUGUGCAUUUAAUUAGUCAUUACCGGAC [EXclNG1-LROPPY04] (Eterna round: R96, puzzle: Exclusion NG 1) | 16.4 | 16.6 |  | 12.5 |  | 
AGUACUAACACGAUAGUGUUAGUACAAUAAGCUUGUGUUACAUGAGGAUCACCCAUGUCCUCAUAAGCUCGUCUUAU [Mat - Sensor v3 - Turn-off var 2 - D54] (puzzle: Sensor v3, turn-off variant 2) |  |  | 30.4 |  | 105 | 129
AGUAACUAUCACGAAAGUGAUAGUUACACAAGUGAAUAAACAUGAGGAUCACCCAUGUCCUCAUUUGCUCGUCUUAU [Sensor 3 - 16] (puzzle: Sensor v3, turn-off variant 2) |  |  | 365 |  | 418 | 499
CCGGUGUGAGGAUAUCGUGGCUUGCAGGAAACGCUAAGUCGCGAGAAGGCACAUGAGGAUCACCCAUGUGUAUC [Eternabot (L2) Solution 54] (Eterna round: R97, puzzle: Exclusion 4) | 62.8 | 24.7 |  |  |  | 
CUGAUGUUAGGAUAUCAGGCGCCCGCCACUAGCAAGGCGCAUGAGAAGGGACAUGAGGAUCACCCAUGUAGUAA [Xexeonza] (puzzle: Exclusion 4) |  |  | 27.7 |  |  | 
GGUAGUAUGAGUAGUCCUCAUUGAAGAGAGUGGUAAGAAACAUGAGGAUCACCCAUGUAAGAACAAGCUUUUGCUCA [JR_Sv3TOV2_Sub005] (puzzle: Sensor v3, turn-off variant 2) |  |  | 15.9 |  | 191 | 266
CGUAAGUGAGGAUAUCGUAGAGGAGACAUGAGGAUCACCCAUGUGUCAAGCGGUCCCGAAUGAGAAGGCACUGGUU [EX5 B.25] (Eterna round: R97, puzzle: Exclusion 5) | 21.5 | 20.3 |  |  |  | 
UUGUGCACGCUGCGGUCCUACAUGAGGAUCACCCAUGUGGUCUGGUGGCGUGGGUCACCGGACUUGGCUCGUCUUGC [salish99_S_TOV1_R5_059] (Eterna round: R97, puzzle: Sensor, turn-off variant 1) | 22.5 | 22.8 |  |  |  | 
GAAAAGUAAGGAUAUGUCCACAGUGAGGAAACUCACUGUGGACAGAAGGUACAUGAGGAUCACCCAUGUUUCUC [ExDelusion 3 - Jieux - Exclusion 4] (Eterna round: R97, puzzle: Exclusion 4) | 213 | 39 |  |  |  | 
CCGACCUGAGGAUAUAGCGUCCGCGACAUGAGGAUCACCCAUGUCCCUCAUAACGUAAAACUAGAAGGUAGAGUCG [Eternabot (L1) Solution 75] (Eterna round: R97, puzzle: Exclusion 5) | 29.8 | 25.7 |  |  |  | 
UAGUGACAUGAGGAUCACCCAUGUGAGGAUAUAGUGAGAGAAAAAAGGAGAGAGAGGACUAGAAGGCACAGUGA [JR_Exclu1_Sub032] (puzzle: Exclusion 1) |  |  | 52.4 |  | 76.6 | 92.7
CUGGAGUCAGGAUAUGACGCAGUCCGCCCAAAGGGCGGAAAUCAGAAGGGACUUGAGGAUCACCCAAGUAAAAG [Gecear] (Eterna round: R97, puzzle: Exclusion 4) | 28.8 | 31.4 |  |  |  | 
UUUAAUUUUUUUUUUUUACAAGCUUUUUGCUCGUCUUAUACAUGAGGAUCACCCAUGUAAAUGGGAGAUAAAUUAUC [JMF 17] (puzzle: Sensor v3, turn-off variant 2) |  |  | 52.4 |  | 95.9 | 92.3
AGCUAGUCAGUAGGAUAUGUAGGAUAUGUGGUUGAGGUUCACCCAACCACAUCAACGACAGAAGGACAGAAGGACUGGUUAGCA [pwkr exNG2 2xFMN 1xF5.5] (Eterna round: R96, puzzle: Exclusion NG 2) | 2320 | 2810 |  | 1210 |  | 
UUUAAACAUGAGGAUCACCCAUGUUAGGAUAUACGAAUGCAGACACACACGGAUGCAAGUAGAAGGAACCAUGC [Design #8] (Eterna round: R97, puzzle: Exclusion 1) | 44.1 | 44.1 |  |  |  | 
GUCAGCUCGUGAGGAUAUACAUGAGGAUCACCCAUGUGAUCAAUAGCAGCUUCGGCUGCAUUAAUGUAGAAGGUACGAGCUGAU [ENG2/5-C2] (Eterna round: R96, puzzle: Exclusion NG 2) | 105 | 463 |  | 231 |  | 
CAGUACUGAGGAUAUACAUGAGGAUCACCCAUGUUCUUCGGCUAGGAAACUAGCAAAGGUAGAAGGCAGUACUG [Salish 065 m16] (Eterna round: R97, puzzle: Exclusion 3) | 285 | 15.7 |  |  |  | 
